Source: the Human Domainome abundance scans (Beltran et al. 2025)
± gives the uncertainty stated by the source.

B1: Segment polarity protein dishevelled homolog DVL-3, residues 2 to 81; numbered along this chain, Q92997 (parent)
chain: GETKIIYHLDGQETPYLVKLPLPAERVTLADFKGVLQRPSYKFFFKSMDDDFGVVKEEISDDNAKLPCFNGRVVSWLVSA

Variants of: B1
Assay: abundance fitness (aPCA) (normalised: wild type 0, dead -1); higher = more abundant; growth selection in yeast, the domain comes from the species named
Details: Homo sapiens

Variant | abundance fitness
GETKIIYHLDGQETPYLVKLPLPAERVTLADFKDVLQRPSYKFFFKSMDDDFGVVKEEISDDNAKLPCFNGRVVSWLVSA [G34D] | 0.418 ± 0.08
GETKIIYHLDGQETPYLVKLPLPAERVTLADFKGDLQRPSYKFFFKSMDDDFGVVKEEISDDNAKLPCFNGRVVSWLVSA [V35D] | -0.892 ± 0.21
GETKIIYHLDGQETPYLVKLPLPAERVTLADFKGQLQRPSYKFFFKSMDDDFGVVKEEISDDNAKLPCFNGRVVSWLVSA [V35Q] | -0.218 ± 0.085
GETKIIYHLDGQETPYLVKLPLPAERVTLADFKGALQRPSYKFFFKSMDDDFGVVKEEISDDNAKLPCFNGRVVSWLVSA [V35A] | 0.173 ± 0.052
GETKIIYHLDGQETPYLVKLPLPAERVTLADFKGNLQRPSYKFFFKSMDDDFGVVKEEISDDNAKLPCFNGRVVSWLVSA [V35N] | -0.375 ± 0.19
GETKIIYHLDGQETPYLVKLPLPAERVTLADFKGCLQRPSYKFFFKSMDDDFGVVKEEISDDNAKLPCFNGRVVSWLVSA [V35C] | -0.074 ± 0.099
GETKIIYHLDGQETPYLVKLPLPAERVTLADFKGTLQRPSYKFFFKSMDDDFGVVKEEISDDNAKLPCFNGRVVSWLVSA [V35T] | -0.167 ± 0.074
GETKIIYHLDGQETPYLVKLPLPAERVTLADFKGLLQRPSYKFFFKSMDDDFGVVKEEISDDNAKLPCFNGRVVSWLVSA [V35L] | -0.164 ± 0.06
GETKIIYHLDGQETPYLVKLPLPAERVTLADFKGHLQRPSYKFFFKSMDDDFGVVKEEISDDNAKLPCFNGRVVSWLVSA [V35H] | -0.301 ± 0.15
GETKIIYHLDGQETPYLVKLPLPAERVTLADFKGFLQRPSYKFFFKSMDDDFGVVKEEISDDNAKLPCFNGRVVSWLVSA [V35F] | -0.031 ± 0.12
GETKIIYHLDGQETPYLVKLPLPAERVTLADFKGYLQRPSYKFFFKSMDDDFGVVKEEISDDNAKLPCFNGRVVSWLVSA [V35Y] | -0.212 ± 0.14
GETKIIYHLDGQETPYLVKLPLPAERVTLADFKGMLQRPSYKFFFKSMDDDFGVVKEEISDDNAKLPCFNGRVVSWLVSA [V35M] | -0.25 ± 0.086
GETKIIYHLDGQETPYLVKLPLPAERVTLADFKGPLQRPSYKFFFKSMDDDFGVVKEEISDDNAKLPCFNGRVVSWLVSA [V35P] | -0.869 ± 0.18
GETKIIYHLDGQETPYLVKLPLPAERVTLADFKGKLQRPSYKFFFKSMDDDFGVVKEEISDDNAKLPCFNGRVVSWLVSA [V35K] | -0.365 ± 0.1
GETKIIYHLDGQETPYLVKLPLPAERVTLADFKGELQRPSYKFFFKSMDDDFGVVKEEISDDNAKLPCFNGRVVSWLVSA [V35E] | -0.468 ± 0.085
GETKIIYHLDGQETPYLVKLPLPAERVTLADFKGSLQRPSYKFFFKSMDDDFGVVKEEISDDNAKLPCFNGRVVSWLVSA [V35S] | -0.257 ± 0.073
GETKIIYHLDGQETPYLVKLPLPAERVTLADFKGILQRPSYKFFFKSMDDDFGVVKEEISDDNAKLPCFNGRVVSWLVSA [V35I] | -0.141 ± 0.1
GETKIIYHLDGQETPYLVKLPLPAERVTLADFKGGLQRPSYKFFFKSMDDDFGVVKEEISDDNAKLPCFNGRVVSWLVSA [V35G] | -0.842 ± 0.085

Variant | abundance fitness
GETKIIYHLDGQETPYLVKLPLPAERVTLADFRGVLQRPSYKFFFKSMDDDFGVVKEEISDDNAKLPCFNGRVVSWLVSA [K33R] | -0.693 ± 0.083
GETKIIYHLDGQETPYLVKLPLPAERVTLADFIGVLQRPSYKFFFKSMDDDFGVVKEEISDDNAKLPCFNGRVVSWLVSA [K33I] | -0.939 ± 0.26
GETKIIYHLDGQETPYLVKLPLPAERVTLADFPGVLQRPSYKFFFKSMDDDFGVVKEEISDDNAKLPCFNGRVVSWLVSA [K33P] | -1.13 ± 0.24
GETKIIYHLDGQETPYLVKLPLPAERVTLADFFGVLQRPSYKFFFKSMDDDFGVVKEEISDDNAKLPCFNGRVVSWLVSA [K33F] | -0.661 ± 0.2
GETKIIYHLDGQETPYLVKLPLPAERVTLADFLGVLQRPSYKFFFKSMDDDFGVVKEEISDDNAKLPCFNGRVVSWLVSA [K33L] | -0.936 ± 0.13
GETKIIYHLDGQETPYLVKLPLPAERVTLADFDGVLQRPSYKFFFKSMDDDFGVVKEEISDDNAKLPCFNGRVVSWLVSA [K33D] | -1.06 ± 0.29
GETKIIYHLDGQETPYLVKLPLPAERVTLADFNGVLQRPSYKFFFKSMDDDFGVVKEEISDDNAKLPCFNGRVVSWLVSA [K33N] | -0.087 ± 0.14
GETKIIYHLDGQETPYLVKLPLPAERVTLADFEGVLQRPSYKFFFKSMDDDFGVVKEEISDDNAKLPCFNGRVVSWLVSA [K33E] | -0.672 ± 0.12
GETKIIYHLDGQETPYLVKLPLPAERVTLADFWGVLQRPSYKFFFKSMDDDFGVVKEEISDDNAKLPCFNGRVVSWLVSA [K33W] | -0.52 ± 0.091
GETKIIYHLDGQETPYLVKLPLPAERVTLADFAGVLQRPSYKFFFKSMDDDFGVVKEEISDDNAKLPCFNGRVVSWLVSA [K33A] | -1.08 ± 0.18
GETKIIYHLDGQETPYLVKLPLPAERVTLADFHGVLQRPSYKFFFKSMDDDFGVVKEEISDDNAKLPCFNGRVVSWLVSA [K33H] | -0.631 ± 0.24
GETKIIYHLDGQETPYLVKLPLPAERVTLADFTGVLQRPSYKFFFKSMDDDFGVVKEEISDDNAKLPCFNGRVVSWLVSA [K33T] | -0.618 ± 0.13
GETKIIYHLDGQETPYLVKLPLPAERVTLADFCGVLQRPSYKFFFKSMDDDFGVVKEEISDDNAKLPCFNGRVVSWLVSA [K33C] | -0.589 ± 0.16
GETKIIYHLDGQETPYLVKLPLPAERVTLADFQGVLQRPSYKFFFKSMDDDFGVVKEEISDDNAKLPCFNGRVVSWLVSA [K33Q] | -0.94 ± 0.21
GETKIIYHLDGQETPYLVKLPLPAERVTLADFGGVLQRPSYKFFFKSMDDDFGVVKEEISDDNAKLPCFNGRVVSWLVSA [K33G] | -0.704 ± 0.078
GETKIIYHLDGQETPYLVKLPLPAERVTLADFVGVLQRPSYKFFFKSMDDDFGVVKEEISDDNAKLPCFNGRVVSWLVSA [K33V] | -0.762 ± 0.11
GETKIIYHLDGQETPYLVKLPLPAERVTLADFSGVLQRPSYKFFFKSMDDDFGVVKEEISDDNAKLPCFNGRVVSWLVSA [K33S] | -0.527 ± 0.091
